# Reference: the supplement of paper PMC9170038
# Tested on: K4 kissing-loop RNA reporter
# Experiment: apparent KD of K4 kissing-loop reporter; higher = weaker reporter binding
# Details: Eterna round: R107; input ligand: none
# Description: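 RNA-MaP round R107: designed RNA switches with theophylline, tryptophan, arginine or FMN aptamers are transcribed on-chip within common flanks. They are titrated with a labelled K4 kissing-loop RNA reporter in RNA-MaP buffer (100 mM Tris pH 7.5, 80 mM KCl, 4 mM MgCl2), without ligand or with the indicated ligand. Median apparent KD per design.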
# 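Note: bound reporter read as fluorescence of individual clusters on recovered sequencing chips by microscopy, with normalized cluster intensities fitted with a binding model.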
row,Sequence,apparent KD of K4 kissing-loop reporter [nM]
1,AGACUACCUACACUGUCAAUAGACAGUGACUAGGAUAUGCUGAUAAGCAGAAGGAGUGAUGUUCCUAAUAAAAGGUGGUAGUCAU [FmnAX 19 #SwitchBubble #StaticStem #K4Early],230
2,UGACUGGAUGGAAGGAGCGCUAAACUCCUAGUGAUGUUAGGGAUACGAGACAAAGUCUUGAAGCAGGUAGGUCGCCAUCUAGUCU [FiskerMod 10 - Jieux - Same State - Arginine B],144
3,GCCUAGCAGGGAAGGAGCGCCAGGAGAAGAAAUGGAGAGAGUUGAGUGAUGUUCAAAUGGUGGCAGGUAGGUCGCCCUGCUAGGC [KL-SSArg B12],583
4,GACGGGUUGCUGCUCAAUCCGUCGCAUGAUCGAGGACCGGUACGGCCGCCACUCGAGGCCAUGCCGUACGAGUGAUGUUCGUGCG [Xeerlaus],324
5,AUGCGCGCGGCGGCCGCCACUCGCAUGAGAGUGAUGUUCUCGCCGGGCCCGCAAGGGCCCGGUGUGAGGACCGGGCCGGGCUGCG [#2 Same State - Tryptophan B Attempt #18 (HarryS)],257
6,GUUCGAUUCUGAGUGAUGUUGAGAAUUGAGAAGGAUAUCCAGAAAAGGAGAAGGUCUACGUCAUGCGCCUCGAUUUGCUAGCUGC [theeternabot_exclusion_KL_FMN_A_50],630
7,UGGCGGACGAUCCGGAGUGAUGUUCCGGAUACCAGCAGAAGAGCCUGCCCUUGGCAGCCGUGCGACGCUGGGAGAGUCCGGCGUC [Requered],104
8,GAAUUAUGUAGAAGGAGCGUUAGAAGGUAUAGGUGCGAGUGAUGUUUGGAUUUGUUAAUUUGACAGGUAGGUCGCUACAGAAGGA [KL-SSArg B18 #analogue],567
9,AAAUUCUUUUUUUUAUUUAACUUUUCAGAAGGAGCGUGGUAGUACACAGGUAGGUCGCUGAAUUUUAGACUAGUGAUGUUAGUUA [JR_SSArginiA_Sub008],190
10,CGUCGGUAGUGAUGUUGCCACGACGCUUUUAAGGAUAUAAGCUAAGUUAGAAGGUAAGAGAGUCAGCCCGGUGGCCUUAGAGUAG [theeternabot_exclusion_KL_FMN_A_17],195
11,AGUUCUUGCCGAAGGAGCGAGGCAGAGUGAUGUUCUGCAAGAGGUCGAAAGACCUCACUGCCUCAGGUAGGUCGCGGCAUGAACA [Omei KL Arginine B Exc A v4],930
12,AAGCGUAAAAUGGCGGACAUACUGCUCCCACGAGGACCGGUACGGCCGCCACUCGAAUGCGGCAGUGAUGUUGCCGCCUUAGCGU [KL-XTryp-A19],79.1
13,GGUAGCAUGGCGGCCGCCACUAAGAGAGUGAUGUUCUCUUAGUUUUUUGAUAUAUUAUCAAUUCUUAGGACCGGGCCAUGCUACC,94.7
14,CCCGUACCAGUGAUGUUGGUAUGGUCUGAUACCAGUCUGUAGUCGGGCCCUUGGCAGCAGACCCUUGCCAAGGUGACGACUCCGG [Qu],126
15,GCAACAUUGGUAGGAUAUCAUUCUGAGUGAUGUUCAGGGUUCAGCUAACGAAAGUUAGUUGUACCAUGAGAAGGGCUAAUGUUGC [Omei KL FMN B SS A v5],967
16,UGCUGGUCAUAGCGUAGUGUGAGCCGCUCACGAGGACCGGUACGGCCGCCACUCGUUACAAAGCAGUGAUGUUGCAAUAGGCUCU [theeternabot_sameState_KL_Trp_A_24],339

# Same assay, conditions: Eterna round: R107; input ligand: theophylline 20 uM
row,Sequence,apparent KD of K4 kissing-loop reporter [nM]
1,GGAUAGGACAGAGGAUAUGGCAGUCUACAAAGUAGGCUGAAAUAAAUCCUUGAAUGGAGUGAUGUUCCAGAAGGCUGUCCUAUCG [FmnBX 23 #SwitchBubble #StaticStem #Palindromic],169
2,AGGCACGAGCAAGGAUAUCGAGUAGAGUGAUGUUCUGCCUGGGUUGGCUCGAAAGGGCCUUCCCAGCGAGAAGGUGCUCGUGCCU [#2 Same State - FMN A Attempt #14 (HarryS)],1040
3,AAUAACUAGUAUAUUUUUAAUAAUACAGAUACCAGUGAUAAUAGACACCCUUGGCAGCUGAUCGAGUGAUGUUCGUUUAUUUUAA [#11 K4 Theophylline A Same State],129
4,GGUGGCGUUGUUGACAGCUCACCACGAGCCAAGGAUAUAGUUUCUUCUAGAAGGUGGAAUGACAAGUGAUGUUUGUACGACUGCU [theeternabot_exclusion_KL_FMN_A_28],294
5,AGCUAUUAGACGGCCGCCACUUGCUCUGAGACCUGACAUGGAACCAGUGAUGUUGGUUUGCGUGUAAGGACCGGGUUUGGUGGCG [Tiesbi],88.7
6,UGUAAGCGCGUAGAUACCAGCAGACGAGUGAUGUUCGAGAGAUUAAGGAAAAGAAAGUAAUGCCCUUGGCAGCUAAUCAUAAGCG [whbob_Ex_Theo_B_sa94],301
7,GAUUCAGUGAUGUUGGAAGGCGAGCGGGAUACCAGCCGAGACUCAGGCCCUUGGCAGCCCACAUAUCCCAGGUAGAUAGUAGAUC [Same State - Theophylline A (Freestyle 8)],166
8,GUGCAGUGAUGUUGCACGAGGAAAGACGAUACCAGCCGUAAAUAAGGCCCUUGGCAGCGUGGGCUAGCACAAAAUAUGCUAGUCU [Laleingeat],68.4
9,GUUGUCUACCAGAGGUGAUGUAUAGUAUCGCGAGGACCGGUACGGCCGCCACUCGUGAAGAGAAAGGAGUGAUGUUCCGUAAUGG [C10],301
10,AUUUAAUUAACUGAUACCAGACUUUUUGUUUUGUAUAUUACUAGUGAUGUUAGUGUUUCUGUCCCUUGGCAGCAGUAUCUACUUA [JR_ExcTheophyB_Sub016],298
11,GCCGUAGAUGGAAGGAGCGUGGUCUAGAAGCACAAGUGAUGUUUGUGGUAACCUUCUGACCCACAGGUAGGUCGCCAUCUACGGC,68.1
12,AUGUAUAUCUCAGGAUAUAUAUGUGUGUGGUGUAUACAUAGUGAUGUUGUGUAUAUCCACAUAUGUAUAGAAGGGAGAUGUGCAU [Skye_SS_FMNB],66
13,GGACGACAGUCGGCCGCCACUCACAGCCGAGUGAUGUUCGGGAUUGUAGCGGAGUGAUGUUUCGCGAGGACCGGGACUGCAGUCC [Same State Typtophan B GF 27],171
14,AGAGAGGUGUUUUUUUGAUGUGAGUAAUGGCGAGGACCGGUACGGCCGCCACUCGGGUGAUGUUAGUGAUGUUGAUGUAGUGAUG [p'pmullin],131
15,UGUAUGUGAUUUGAUACCAGACCAGCUGGUGUUAGAUGAGUGAUGUUGAUCUAGGGUUGGGUCCCUUGGCAGCAAAUCGCAUACU [KL-SSTheoB22],435
16,CAAGGACGGCCGUAGGCAUACCGUCGAUUCAAGGAUAUCAAGAGAAUGAGAAGGUGAAGUUUAUACAGUGAUGUUGCUAUAGAGA [theeternabot_sameState_KL_FMN_A_6],195
17,AGACUACCUACACUGUCAAUAGACAGUGACUAGGAUAUGCUGAUAAGCAGAAGGAGUGAUGUUCCUAAUAAAAGGUGGUAGUCAU [FmnAX 19 #SwitchBubble #StaticStem #K4Early],284
18,UGACUGGAUGGAAGGAGCGCUAAACUCCUAGUGAUGUUAGGGAUACGAGACAAAGUCUUGAAGCAGGUAGGUCGCCAUCUAGUCU [FiskerMod 10 - Jieux - Same State - Arginine B],144
19,GCCUAGCAGGGAAGGAGCGCCAGGAGAAGAAAUGGAGAGAGUUGAGUGAUGUUCAAAUGGUGGCAGGUAGGUCGCCCUGCUAGGC [KL-SSArg B12],761
20,GACGGGUUGCUGCUCAAUCCGUCGCAUGAUCGAGGACCGGUACGGCCGCCACUCGAGGCCAUGCCGUACGAGUGAUGUUCGUGCG [Xeerlaus],388
21,AUGCGCGCGGCGGCCGCCACUCGCAUGAGAGUGAUGUUCUCGCCGGGCCCGCAAGGGCCCGGUGUGAGGACCGGGCCGGGCUGCG [#2 Same State - Tryptophan B Attempt #18 (HarryS)],193
22,GUUCGAUUCUGAGUGAUGUUGAGAAUUGAGAAGGAUAUCCAGAAAAGGAGAAGGUCUACGUCAUGCGCCUCGAUUUGCUAGCUGC [theeternabot_exclusion_KL_FMN_A_50],515
23,UGGCGGACGAUCCGGAGUGAUGUUCCGGAUACCAGCAGAAGAGCCUGCCCUUGGCAGCCGUGCGACGCUGGGAGAGUCCGGCGUC [Requered],107
24,GAAUUAUGUAGAAGGAGCGUUAGAAGGUAUAGGUGCGAGUGAUGUUUGGAUUUGUUAAUUUGACAGGUAGGUCGCUACAGAAGGA [KL-SSArg B18 #analogue],205
